Assay results reported in the nanobody polyreactivity screen of Harvey et al. (2022).

Assay: yeast display, Sf9 membrane polyspecificity reagent, FACS + sequencing; frameworks hold sequencing errors
How it was run: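 A nanobody's polyreactivity label depends on the gate it was sorted from. Yeast display cells were stained with 10% biotinylated, detergent-solubilized Sf9 membrane reagent for 1 hour at 4 °C, enriched on streptavidin microbeads and sorted by FACS. The low and high (top ~1%) gates were set on anti-HA fluorescence for expression and streptavidin fluorescence for reagent binding.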

Sequence | polyreactivity (PSR sort gate)
QVQLVESGGGLVQAGGSLRLSCAASGSTFSDYAMGWYRQATGKERELVAAISKRGGSTYYADSVKGRFTISRDNAKNTVFLQMNSQKPEDTAVYYCNKESLYREFDYWGQGTQVTVSS | low polyreactivity
QVQLVESGGGLVQAGGSLRLSCAASGSTFSDYTMGWYRQAPGKERELVAAITTIGGSTYYADSVKGRFTISRDNAKNTVYLQMNSLKPEDTAVYYCAAYYYYPFEYYYWGQGTQVTVSS | low polyreactivity
QVQLVESGGGLVQAGGSLRLSCAASGSTFSDYVMGWYRQAPGKEREFVAAISWTGGITYYADSVKGRFTISRDNAKNTVYLQMNSLKPEDTAVYYCAAKRKYYGNGYWGQGTQVTVSS | high polyreactivity
QVQLVESGGGLVQAGGSLRLSCAASGSTFSEYAMGWYRQAPGKERELVASITWSDDSTYYADSVKGRFTISRDNAKITVYLQMNSLKPEDSAVYYCAVRTGRRWWKFDYWGQGTQVTVSS | low polyreactivity
QVQLVESGGGLVQAGGSLRLSCAASGSTFSFYAMGWYRQAPGKERELVAAISRSGGSTFYADSVKGRFTISRDNAKNTFYLQMNSLKAEDTAVYYCAAEYAYVPGWYEYWGQGTQVTVSS | high polyreactivity
QVQLVESGGGLVQAGGSLRLSCAASGSTFSFYAMGWYRQAPGKERELVADITSGGSTYYADSVKGRFTISRDNAKNTVYLQMNSLKPEDTAVYYCAKADYGGDYYYQSGGLYYYWGQGTQVTVSS | low polyreactivity
QVQLVESGGGLVQAGGSLRLSCAASGSTFSFYDMGWSRQAPGKERELVAAITGSGGTTYYADSVQGRFTISRDNAKNTVYFQMNSLKPEDTAVYFCAADSLESYPDYEYDFWGQGTQVTVSS | low polyreactivity
QVQLVESGGGLVQAGGSLRLSCAASGSTFSFYDMGWYRQAPGKERELVAAITGSGGTTYYADSVKGRFTISRDNAKNTVYLQMNSLKPEDTAVYYCAADSLESYPDYEYDYWGQGTQVTVSS | low polyreactivity
QVQLVESGGGLVQAGGSLRLSCAASGSTFSGNAMGWYRQAPGKERELVARIRWSTGSTYYADSVKGRFTISRDNAKNTVYLQMNSLKPEDTAVYYCNARGTPWRYGGDYWGQGTQVTVSS | low polyreactivity
QVQLVESGGGLVQAGGSLRLSCAASGSTFSGNTMGWYRQAPGKERELVAAISRGGTRTNYADSVKGRFTISRDNAKNTVYLQMNSLKPEDTAVYYCAAGGSWGQNGYWGQGSQVTVSS | high polyreactivity
QVQLVESGGGLVQAGGSLRLSCAASGSTFSGSVMGWDRPAPGKERELVAAISNRGGRTYYADSVKGRFTISRDNAKNTVYLQMNSLKPEDTAVYYCAARGVVDAGRTNRPYDYWGQGTQVTVSS | low polyreactivity
QVQLVESGGGLVQAGGSLRLSCAASGSTFSGYAMGWYRQAPGKERELVAAISSSGGGTYYADSVKGRFTISRDNAKNTDYLQMNSLKPEDTAVYYCAARVGYRYRKGRYDYWGKGTQVTVSS | high polyreactivity
QVQLVESGGGLVQAGGSLRLSCAASGSTFSGYAMGWYRQAPGKERELVAAITSSGGRTYYADSVKGRFTISRDNAKNTVYLQMNSLKPEDTAVYYCAALYYHEYDYWGQGTQVTVSS | low polyreactivity
QVQLVESGGGLVQAGGSLRLSCAASGSTFSGYVMGWYRQAPGKERELVAAINGGGGTTYYADSVKGRFTISRDNAKNTVYLQMNSLKPEDTAVYYCAKRSYVTYPPYDYWGQGTQVTVSS | high polyreactivity
QVQLVESGGGLVQAGGSLRLSCAASGSTFSHNAMGWYREATGKERELVAAITAGGITYYADSVKGRFTISRDNAKNTVYLQMNSLKPEETAVYYCAGDFWPSGRGVAFDYWGQGTQVTVSS | low polyreactivity
QVQLVESGGGLVQAGGSLRLSCAASGSTFSHYAMGLYRQAPGKERALVAAISSGANTYYADSVKGRFTISRDNAKNTVYLLMNSLKPEDTAVYYCAADYYLAYIFPYDYWGQGSQVTVSS | low polyreactivity
QVQLVESGGGLVQAGGSLRLSCAASGSTFSINAMGWYRQAPGIERELVAAISRSGGSTYYADSVKGRFTISRDNAKNTVYLQMNSLKPEDTAVYYCAADSRYDYEYWGQGTQVTVSS | high polyreactivity
QVQLVESGGGLVQAGGSLRLSCAASGSTFSIYAMGWYRQAPGKERELVAAITRRSGSTYYADSVKGRITISRDNAKNTVSLQMKSLKPEDTAVYYCAADTWRTDYTSSYYKNRDSWGQGTQVTVSS | high polyreactivity
QVQLVESGGGLVQAGGSLRLSCAASGSTFSKNTMGWYRKAPGKERELVAAITSGGSTYYADSVKGRFTISRDNAKNTVYLQMNSLKPEDTAVYYCAAGYELYYYIYKMDYWGQGTQVTVSS | high polyreactivity
QVQLVESGGGLVQAGGSLRLSCAASGSTFSKYAMGWYRQAPGKERELVAAISSRGGSTYYADSVKGRFTISRDNAKNTVYLQMNSLKPEDTAVYYCATYYVYKLYYWGQGTQVTVSS | high polyreactivity
QVQLVESGGGLVQAGGSLRLSCAASGSTFSKYFMGWYSQAPGKERELVAAISGGDRTYYADSVKGRFTISRDNAKNTVYLQMNSLKTEVTAVYDCAAEVLKTRWSYDYWGQGTQVTVSS | high polyreactivity
QVQLVESGGGLVQAGGSLRLSCAASGSTFSLYAMGWYRQAPGIERELVAAIRSSGSTKYADSVKGRFTISRDNAKNTVYLQINSLKPEETAVYYCAAVSVTRADGRSGYEYWGQGTQVTVSS | low polyreactivity

Sequence | polyreactivity (PSR sort gate)
QVQLVESGGGLVQAGGSLRLSCAASGSTFSLYAMGWYRQAPGKERELVAAISSGGRTYYADSVKGRFTISRDNAKNTVYLQMNSLKPEVTAVYYCAVYVAYLYSYYYWGQGTQVTVSS | low polyreactivity
QVQLVESGGGLVQAGGSLRLSCAASGSTFSLYAMGWYRQAPGKERELVARISYTDGSTYYADSVKGRFTISRDNAKNTVYLPMNSLKPEDTAVYYCAADAWYSYTLEDSWGQGTQVTVSS | low polyreactivity
QVQLVESGGGLVQAGGSLRLSCAASGSTFSNYAMGWYRQAPGKDRELVAGIDWSGGSTYYADSVKGRFTISRDNAKNTVYLQMNSLKPEDTAVYYSAKRVWYHGRKLRGYYWGQGTQVTVSS | low polyreactivity
QVQLVESGGGLVQAGGSLRLSCAASGSTFSPNAMGWSRQAPGKERELVAAITYRGANTYYADSVKGRFTISRDNAKNTVYLQMNSLKPEDTAVYYCAAEYAYHHVGFGYWGQGTQVTVSS | low polyreactivity
QVQLVESGGGLVQAGGSLRLSCAASGSTFSPNAMGWYRQATGKERELVAAITYRGANTYYADSVKGRFTISRDNAMITVYFQLNSLKPEDTAVYYCAPEYAYHHVGFGYWRQGTQVTVSS | low polyreactivity
QVQLVESGGGLVQAGGSLRLSCAASGSTFSPYAMGWYRPAPGKERELVAAITSGGSTYYADSVKGRFTISRDNAKNTVYLQMNSLKPEDTAVYYCNVVYIRVRRYNYWGQGTQVTVSS | high polyreactivity
QVQLVESGGGLVQAGGSLRLSCAASGSTFSPYAMGWYRQAPGKERELVAAISYDGGSTYYADSVKGRFTISRDNAKNTVYLQMNSLKPDDTAGYYCAADYFRSYEGTYWVVASYYYWGQGTQVTVSS | low polyreactivity
QVQLVESGGGLVQAGGSLRLSCAASGSTFSPYAMGWYRQAPGKERELVAAITGSTGSTYYAESVKGRFTISRDNAKNTVYLQMNSLKPEDTAVYYCAAVSSNARHVSRRRGYYWGQGTQVTVSS | high polyreactivity
QVQLVESGGGLVQAGGSLRLSCAASGSTFSPYVMGWYRQAPGKERELVAAITSGGITNYADSVKGRFTISRDNAKNTVYLQMNSLKPEDTAVYYCNVDRYIRDSWGDYWGQGTQVTVSS | high polyreactivity
QVQLVESGGGLVQAGGSLRLSCAASGSTFSRNAMGWYRQAPGKERELVAAISRRGDTTYYADSVKGRFTISRDNAKNTVYLQMNSLKPEDTAVYYCNRLTIGSSSYDYWGQGTQVTVSS | high polyreactivity
QVQLVESGGGLVQAGGSLRLSCAASGSTFSRNVMAWYRQAPGKDRELVAAISRGGSTNYADSVKGRFTISRDNAKNTVYLQMNSLKPEDTAVYYCNAPRLGKFYYWGQGTQVTVSS | low polyreactivity
QVQLVESGGGLVQAGGSLRLSCAASGSTFSRYAMGWYRQAPGKDRELVAAINRSGGSTYYADSVKGRFTISRDNAKNTVYLQMNSLKPEDTAVYYCNKYTGYLHDYWGQGTQVTVSS | high polyreactivity
QVQLVESGGGLVQAGGSLRLSCAASGSTFSRYAMGWYRQAPGKERELVAAISSGDRTNYADSVKGRFTISRDNAKNTVYLQMNSLKPEDTAVYYCADDLFPIAGEYDYWGQGTQVTVSS | high polyreactivity
QVQLVESGGGLVQAGGSLRLSCAASGSTFSRYAMGWYRQAPGKERELVAAISWSGGSTYYADSVKGRFTISRDTAKNTVYLQMNSLKPEDTAVYYCAAYTYSFRANHDYWGQGTQVTVSS | high polyreactivity
QVQLVESGGGLVQAGGSLRLSCAASGSTFSRYAMGWYRQAPGKERELVAAITSNGGRTYYADSVKGRFTISRDNAKNTVYLQMNSLKPEDTAVYYCAAVYYTEYYWGQGTQVTVSS | high polyreactivity
QVQLVESGGGLVQAGGSLRLSCAASGSTFSSLIMGWYRQAPGKERELVAAISRSGGRTYYADSVKGRFTISRDNAKNTVYLQMNSLKPEDTAVYYCAAPWFRDTRGYSLYDYWGQGTQVTVSS | high polyreactivity
QVQLVESGGGLVQAGGSLRLSCAASGSTFSSNAMGWYRQAPGKERELVAAINRRGGTYYADSVKGRFTISRDNAKNTVYLQMNSLKPEDTAVYYCAAASPYHEYDYCGQGTQVTVSS | low polyreactivity
QVQLVESGGGLVQAGGSLRLSCAASGSTFSSYAMGWYRPAPGKERELVARISSSGGRTSYADSVKGRFTISRDHAKNTVYLQMNSLKAEDTAVSYCAAEDQYYRYFFSYEYWGQGTQVTVSS | high polyreactivity
QVQLVESGGGLVQAGGSLRLSCAASGSTFSSYAMGWYRQAPGKEREFDAAINTDGGSTYYADSVKGRFTISRDNAKNTVYLQMNSLKPEDTAVYYCAARYYWPWYSSYDYWGQGTQVTVSS | low polyreactivity
QVQLVESGGGLVQAGGSLRLSCAASGSTFSSYAMGWYRQAPGKERELVAAINWSGTRTYYADSVKGRFTISRDNAKNTVYLQMNSLKPEDTAVYYCAAPGFGETADYDDWGQGTQVTVSS | low polyreactivity
QVQLVESGGGLVQAGGSLRLSCAASGSTFSSYVMGWYRQAPGKERELVAAISSIGGSTYYADSVKGRFTISRDNAKNTVYLQMNSLKPEDTAVYYCAAEPPGSTYEGGYWGQGTQVTVSS | low polyreactivity
